Experimental data from patent US20100092494A1 (BOARD OF TRUSTEES OF THE UNIVERSITY OF ILLINOIS, published 2010).

Tests used:
[1] = biological target: the molecule itself; test: PFO-PAGE and immunoblot
[2] = biological target: T1, human basigin-2 (human, UniProt P35613 140-385); test: Sulfo-SBED biotin label transfer on HESC and CCL-2 cells, basigin immunoprecipitation, neutravidin-HRP blot
T1 construct: Endogenous glycosylated protein of HESC uterine fibroblasts and CCL-2 (HeLa) cells, found in the membrane fraction; also called basigin isoform 2; 50 kDa basigin protein
T1 sequence: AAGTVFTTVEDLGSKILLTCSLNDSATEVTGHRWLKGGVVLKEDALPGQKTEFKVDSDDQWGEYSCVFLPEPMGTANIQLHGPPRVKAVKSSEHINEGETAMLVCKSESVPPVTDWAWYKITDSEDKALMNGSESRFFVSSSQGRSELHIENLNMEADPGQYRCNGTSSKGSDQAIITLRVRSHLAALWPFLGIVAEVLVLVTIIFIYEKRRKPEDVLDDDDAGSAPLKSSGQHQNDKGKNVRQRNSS
Method: Biotin label transfer from rBSG to CCL-2 cells (HeLa) was performed by treating cells with increasing concentrations of SEED-labeled rBSG (0, 0.05, 0.5, 5, and 50 μg/ml) for 10 minutes at 37° C. Following 5 minutes of UV light treatment, cells were washed twice with PBS and total cell lysates collected using IP buffer. Proteins from labeled cells were precipitated with either neutravidin beads (FIGS. 7A and 7B) or immunoprecipitated with the P2C2 mAb (FIGS. 7C and 7D). Precipitated proteins were resolved by 15% SDS-PAGE in duplicate, and immunoblotted with either Streptavidin-HRP (FIGS. 7A and 7C) or with the R&D Systems anti-hEMMPRIN pAb (FIGS. 7B and 7D). The Santa Cruz goat anti-rabbit (anti-mouse, anti-human depleted)-HRP secondary antibody used for this experiment was previously shown to not cross-react with the P2C2 mAb. The basigin-2 band is indicated with an arrowhead and the basigin-3/rBSG band is indicated with an arrow. This experiment was performed twice with similar results.
Immunoprecipitation and Immunoblot Analysis. Immunoprecipitation of basigin was performed using the monoclonal antibody P2C2. Ten to […] of antibody added to 1 mg soluble protein was incubated overnight at 4° C. with rocking, and immune complexes were collected on protein G SEPHAROSE beads for 4 hours at 4° C. Immunoprecipitated proteins were resolved by SDS-PAGE using standard methods. […]

B1: recombinant human basigin extracellular domain construct (rBSG) (ligand)
chain: WSHPQFEKAGTVFTTVEDLGSKILLTCSLNDSATEVTGHRWLKGGVVLKEDALPGQKTEFKVDSDDQWGEYSCVFLPEPMGTANIQLHGPPRVKAVKSSEHINEGETAMLVCKSESVPPVTDWAWYKITDSEDKALMNGSESRFFVSSSQGRSELHIENLNMEADPGQYRCNGTSSKGSDQAIITLRVRSHLHHHHHH
notes: also called recombinant basigin; soluble rBSG
B1: binds [1]; binds [2].
